{
  "source": "FireProtDB",
  "proteins": {"B1": {"name": "Cyclin-dependent kinase 4 inhibitor D wild type, P55273 (protein)", "chain": "MLLEEVRAGDRLSGAAARGDVQEVRRLLHRELVHPDALNRFGKTALQVMMFGSTAIALELLKQGASPNVQDTSGTSPVHDAARTGFLDTLKVLVEHGADVNVPDGTGALPIHLAVQEGHTAVVSFLAAESDLHRRDARGLTPLELALQRGAQDLVDILQGHMVAPL"}, "B2": {"name": "Protein CutA wild type, O60888 (protein)", "chain": "MSGGRAPAVLLGGVASLLLSFVWMPALLPVASRLLLLPRVLLTMASGSPPTQPSPASDSGSGYVPGSVSAAFVTCPNEKVAKEIARAVVEKRLAACVNLIPQITSIYEWKGKIEEDSEVLMMIKTQSSLVPALTDFVRSVHPYEVAEVIALPVEQGNFPYLQWVRQVTESVSDSITVLP"}, "B3": {"name": "Cystatin-B wild type, P04080 (protein)", "chain": "MMCGAPSATQPATAETQHIADQVRSQLEEKENKKFPVFKAVSFKSQVVAGTNYFIKVHVGDEDFVHLRVFQSLPHENKPLTLSNYQTNKAKHDELTYF"}, "B4": {"name": "Cyclin-dependent kinase inhibitor 2A wild type, P42771 (protein)", "chain": "MEPAAGSSMEPSADWLATAAARGRVEEVRALLEAGALPNAPNSYGRRPIQVMMMGSARVAELLLLHGAEPNCADPATLTRPVHDAAREGFLDTLVVLHRAGARLDVRDAWGRLPVDLAEELGHRDVARYLRAAAGGTRGSNHARIDAAEGPSDIPD"}, "B5": {"name": "Apolipoprotein C-I wild type, P02654 (protein)", "chain": "MRLFLSLPVLVVVLSIVLEGPAPAQGTPDVSSALDKLKEFGNTLEDKARELISRIKQSELSAKMREWFSETFQKVKEKLKIDS"}, "B6": {"name": "Frataxin, mitochondrial wild type, Q16595 (protein)", "chain": "MWTLGRRAVAGLLASPSPAQAQTLTRVPRPAELAPLCGRRGLRTDIDATCTPRRASSNQRGLNQIWNVKKQSVYLMNLRKSGTLGHPGSLDETTYERLAEETLDSLAEFFEDLADKPYTFEDYDVSFGSGVLTVKLGGDLGTYVINKQTPNKQIWLSSPSSGPKRYDWTGKNWVYSHDGVSLHELLAAELTKALKTKLDLSSLAYSGKDA"}, "B7": {"name": "Matrilysin wild type, P09237 (protein)", "chain": "MRLTVLCAVCLLPGSLALPLPQEAGGMSELQWEQAQDYLKRFYLYDSETKNANSLEAKLKEMQKFFGLPITGMLNSRVIEIMQKPRCGVPDVAEYSLFPNSPKWTSKVVTYRIVSYTRDLPHITVDRLVSKALNMWGKEIPLHFRKVVWGTADIMIGFARGAHGDSYPFDGPGNTLAHAFAPGTGLGGDAHFDEDERWTDGSSLGINFLYAATHELGHSLGMGHSSDPNAVMYPTYGNGDPQNFKLSQDDIKGIQKLYGKRSNSRKK"}, "B8": {"name": "Glutathione S-transferase A1 wild type, P08263 (protein)", "chain": "MAEKPKLHYFNARGRMESTRWLLAAAGVEFEEKFIKSAEDLDKLRNDGYLMFQQVPMVEIDGMKLVQTRAILNYIASKYNLYGKDIKERALIDMYIEGIADLGEMILLLPVCPPEEKDAKLALIKEKIKNRYFPAFEKVLKSHGQDYLVGNKLSRADIHLVELLYYVEELDSSLISSFPLLKALKTRISNLPTVKKFLQPGSPRKPPMDEKSLEEARKIFRF"}, "B9": {"name": "Annexin A5 wild type, P08758 (protein)", "chain": "MAQVLRGTVTDFPGFDERADAETLRKAMKGLGTDEESILTLLTSRSNAQRQEISAAFKTLFGRDLLDDLKSELTGKFEKLIVALMKPSRLYDAYELKHALKGAGTNEKVLTEIIASRTPEELRAIKQVYEEEYGSSLEDDVVGDTSGYYQRMLVVLLQANRDPDAGIDEAQVEQDAQALFQAGELKWGTDEEKFITIFGTRSVSHLRKVFDKYMTISGFQIEETIDRETSGNLEQLLLAVVKSIRSIPAYLAETLYYAMKGAGTDDHTLIRVMVSRSEIDLFNIRKEFRKNFATSLYSMIKGDTSGDYKKALLLLCGEDD"}, "B10": {"name": "Superoxide dismutase [Mn], mitochondrial wild type, P04179 (protein)", "chain": "MLSRAVCGTSRQLAPVLGYLGSRQKHSLPDLPYDYGALEPHINAQIMQLHHSKHHAAYVNNLNVTEEKYQEALAKGDVTAQIALQPALKFNGGGHINHSIFWTNLSPNGGGEPKGELLEAIKRDFGSFDKFKEKLTAASVGVQGSGWGWLGFNKERGHLQIAACPNQDPLQGTTGLIPLLGIDVWEHAYYLQYKNVRPDYLKAIWNVINWENVTERYMACKK"}},
  "settings": "Homo sapiens, whole UniProt chain shown",
  "key": {"[1]": {"settings": "pH 7, Thermal, DSC, Potassium phosphate buffer, NaCl, reversible: yes"}, "[2]": {"settings": "pH 5.3, Thermal, DSC, acetate 20 mM"}, "[3]": {"settings": "pH 7.5, 25 °C, Urea, CD, HEPES 20 mM, NaCl 100 mM, reversible: no"}, "[4]": {"settings": "pH 7.5, 25 °C, Urea, CD, Sodium phosphate 15 mM, NaCl 100 mM, reversible: yes"}, "[5]": {"settings": "pH 7.5, 0 °C, GdnHCl, CD, Na2HPO4 5 mM, transition: 2, reversible: No"}, "[6]": {"settings": "pH 7, 25 °C, Urea, CD, Tris-HCL, Nacl, transition: 2, reversible: yes"}, "[7]": {"settings": "pH 7, 25 °C, Urea, Fluorescence, Tris-HCl, NaCl, transition: 2"}, "[8]": {"settings": "pH 7, 25 °C, Urea, fluorescence, Tris-HCL, Nacl, transition: 2, reversible: yes"}, "[9]": {"settings": "pH 7, Thermal, DSC, Tris-Maleate 0.02M, KCl 0.1 M, transition: 2, reversible: no"}, "[10]": {"settings": "pH 7, Thermal, DSC, Tris-Maleate / KCL 20000 / 100000, transition: 2, reversible: no"}, "[11]": {"settings": "pH 6.5, 25 °C, Urea, CD, Sodium phosphate 20 mM, NaCl 100 mM"}, "[12]": {"settings": "pH 8, Thermal, CD, Tris-HCl 10 mM"}, "[13]": {"settings": "pH 7.8, Thermal, DSC, Potassium phosphate 2 mM, reversible: yes"}},
  "data": [
    {"protein": "B1", "values": [
      {"measurement": "denaturant midpoint (higher = more stable)", "setting": "pH 7.5, 15 °C, Urea, CD, Na-phospahate 20 mM, reversible: yes", "result": 2.9, "unit": "M"},
      {"measurement": "Tm", "setting": "pH 7.5, Thermal, CD, sodium phosphate 20 mM, reversible: yes", "result": 51.9, "unit": "°C"}
    ]},
    {"protein": "B2", "values": [
      {"measurement": "Tm", "setting": "[1]", "result": 96.4, "unit": "°C"},
      {"measurement": "unfolding enthalpy (calorimetric)", "setting": "[1]", "result": 284, "unit": "kcal/mol"},
      {"measurement": "unfolding free energy", "setting": "[1]", "result": 0, "unit": "kcal/mol"},
      {"measurement": "denaturant midpoint (higher = more stable)", "setting": "pH 8, 37 °C, GdnHCl, CD, Tris-HCl buffer, NaCl, transition: 2, reversible: yes", "result": 2.38, "unit": "M"}
    ]},
    {"protein": "B3", "values": [
      {"measurement": "Tm", "setting": "[2]", "result": 50.2, "unit": "°C"},
      {"measurement": "heat capacity change of unfolding", "setting": "[2]", "result": 1.6, "unit": "kcal/mol/K"},
      {"measurement": "unfolding enthalpy (calorimetric)", "setting": "[2]", "result": 70, "unit": "kcal/mol"}
    ]},
    {"protein": "B4", "values": [
      {"measurement": "denaturant midpoint (higher = more stable)", "setting": "[3]", "result": 2.74, "unit": "M"},
      {"measurement": "unfolding free energy", "setting": "[3]", "result": 2.7, "unit": "kcal/mol"},
      {"measurement": "unfolding free energy", "setting": "pH 7.5, 25 °C, Urea, CD, MOPS 10 mM, NaF 50 mM, reversible: Yes", "result": 2.3, "unit": "kcal/mol"},
      {"measurement": "denaturant m value", "setting": "[4]", "result": 2, "unit": "kcal/mol/M"},
      {"measurement": "denaturant midpoint (higher = more stable)", "setting": "[4]", "result": 1.9, "unit": "M"},
      {"measurement": "Tm", "setting": "pH 7.5, Thermal, CD, HEPES 50 mM, reversible: no", "result": 41.5, "unit": "°C"}
    ]},
    {"protein": "B5", "values": [
      {"measurement": "denaturant m value", "setting": "[5]", "result": 3.7, "unit": "kcal/mol/M"},
      {"measurement": "denaturant midpoint (higher = more stable)", "setting": "[5]", "result": 0.85, "unit": "M"},
      {"measurement": "unfolding free energy", "setting": "[5]", "result": 2.8, "unit": "kcal/mol"},
      {"measurement": "unfolding free energy", "setting": "pH 7.5, 25 °C, GdnHCl, CD, Na2HPO4 5 mM, transition: 2, reversible: No", "result": 1.8, "unit": "kcal/mol"},
      {"measurement": "Tm", "setting": "pH 7.8, Thermal, CD, Sodium phosphate 5 mM, reversible: yes", "result": 51, "unit": "°C"}
    ]},
    {"protein": "B6", "values": [
      {"measurement": "denaturant midpoint (higher = more stable)", "setting": "[6]", "result": 4.92, "unit": "M"},
      {"measurement": "unfolding free energy", "setting": "[6]", "result": 9, "unit": "kcal/mol"},
      {"measurement": "denaturant midpoint (higher = more stable)", "setting": "pH 7, 25 °C, Urea, CD, Tris-HCl, NaCl, transition: 2", "result": 4.92, "unit": "M"},
      {"measurement": "denaturant midpoint (higher = more stable)", "setting": "[7]", "result": 4.94, "unit": "M"},
      {"measurement": "unfolding free energy", "setting": "[7]", "result": 9.1, "unit": "kcal/mol"},
      {"measurement": "denaturant midpoint (higher = more stable)", "setting": "[8]", "result": 4.94, "unit": "M"},
      {"measurement": "unfolding free energy", "setting": "[8]", "result": 9.1, "unit": "kcal/mol"},
      {"measurement": "Tm", "setting": "pH 7, Thermal, CD, Sodium phosphate buffer, NaCl", "result": 69.4, "unit": "°C"},
      {"measurement": "Tm", "setting": "pH 7, Thermal, CD, sodium phosphate, Nacl, transition: 2", "result": 69.4, "unit": "°C"}
    ]},
    {"protein": "B7", "values": [
      {"measurement": "Tm", "setting": "[9]", "result": 98.3, "unit": "°C"},
      {"measurement": "unfolding enthalpy (calorimetric)", "setting": "[9]", "result": 13.7, "unit": "kcal/mol"},
      {"measurement": "Tm", "setting": "[10]", "result": 98.3, "unit": "°C"},
      {"measurement": "unfolding enthalpy (calorimetric)", "setting": "[10]", "result": 13.8, "unit": "kcal/mol"}
    ]},
    {"protein": "B8", "values": [
      {"measurement": "denaturant m value", "setting": "[11]", "result": 4.2, "unit": "kcal/mol/M"},
      {"measurement": "denaturant midpoint (higher = more stable)", "setting": "[11]", "result": 4.6, "unit": "M"}
    ]},
    {"protein": "B9", "values": [
      {"measurement": "Tm", "setting": "[12]", "result": 51.9, "unit": "°C"},
      {"measurement": "unfolding enthalpy (van 't Hoff)", "setting": "[12]", "result": 166, "unit": "kcal/mol"}
    ]},
    {"protein": "B10", "values": [
      {"measurement": "Tm", "setting": "[13]", "result": 70, "unit": "°C"},
      {"measurement": "unfolding enthalpy (calorimetric)", "setting": "[13]", "result": 142, "unit": "kcal/mol"}
    ]}
  ]
}
